Measurements published in IntAct's records for PubMed 28302851.

B1: Circadian clock oscillator protein KaiB (Thermosynechococcus elongatus (strain BP-1)), Q79V61 (parent)
chain: MAPLRKTYVLKLYVAGNTPNSVRALKTLNNILEKEFKGVYALKVIDVLKNPQLAEEDKILATPTLAKVLPPPVRRIIGDLSNREKVLIGLDLLYEEIGDQAEDDLGLE
partner: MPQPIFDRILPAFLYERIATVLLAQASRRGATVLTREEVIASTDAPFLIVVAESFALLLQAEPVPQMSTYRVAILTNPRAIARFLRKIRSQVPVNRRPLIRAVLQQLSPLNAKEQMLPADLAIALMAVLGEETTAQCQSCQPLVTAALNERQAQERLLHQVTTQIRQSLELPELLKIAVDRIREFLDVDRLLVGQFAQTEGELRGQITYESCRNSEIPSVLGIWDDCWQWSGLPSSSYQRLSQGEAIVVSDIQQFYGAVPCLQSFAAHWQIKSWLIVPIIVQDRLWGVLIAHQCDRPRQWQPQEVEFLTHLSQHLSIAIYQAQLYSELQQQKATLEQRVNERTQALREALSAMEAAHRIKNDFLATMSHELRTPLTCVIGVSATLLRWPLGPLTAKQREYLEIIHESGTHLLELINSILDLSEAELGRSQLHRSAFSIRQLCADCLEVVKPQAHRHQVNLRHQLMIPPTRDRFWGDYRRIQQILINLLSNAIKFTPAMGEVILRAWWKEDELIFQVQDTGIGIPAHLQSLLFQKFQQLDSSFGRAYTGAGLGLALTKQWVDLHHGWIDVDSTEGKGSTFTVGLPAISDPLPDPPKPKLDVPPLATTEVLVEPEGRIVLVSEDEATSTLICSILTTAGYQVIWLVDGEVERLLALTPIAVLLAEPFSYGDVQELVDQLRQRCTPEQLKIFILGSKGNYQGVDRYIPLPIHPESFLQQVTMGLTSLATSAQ
B2: Circadian clock oscillator protein KaiB (Thermosynechococcus elongatus (strain BP-1)), Q79V61 (parent)
chain: B1 chain
partner: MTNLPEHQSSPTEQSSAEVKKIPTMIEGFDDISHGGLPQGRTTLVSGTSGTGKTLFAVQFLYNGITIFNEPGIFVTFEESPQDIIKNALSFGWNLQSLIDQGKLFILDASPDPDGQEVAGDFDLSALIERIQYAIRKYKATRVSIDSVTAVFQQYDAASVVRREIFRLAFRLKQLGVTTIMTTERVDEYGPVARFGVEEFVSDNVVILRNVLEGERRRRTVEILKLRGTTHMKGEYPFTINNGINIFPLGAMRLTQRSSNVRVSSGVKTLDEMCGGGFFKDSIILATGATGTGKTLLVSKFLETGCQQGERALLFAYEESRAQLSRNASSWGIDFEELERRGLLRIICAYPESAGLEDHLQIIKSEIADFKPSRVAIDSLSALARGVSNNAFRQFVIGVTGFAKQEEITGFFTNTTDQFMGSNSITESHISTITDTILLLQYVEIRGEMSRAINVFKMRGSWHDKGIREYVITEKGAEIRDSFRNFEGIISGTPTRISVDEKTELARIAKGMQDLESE

Variants of: B1
Settings: with cika_thevb cikA

| Variant | effect of a mutation on the interaction |
| --- | --- |
| N29A | with no effect |

Variants of: B2
Settings: with kaic_thevb kaiC

| Variant | effect of a mutation on the interaction |
| --- | --- |
| Y8A;I88A;Y94A | with no effect |
